Measured values as given in article PMC7698151, “Evidence for Pentapeptide-Dependent and Independent CheB Methylesterases” (International Journal of Molecular Sciences, 2020).

Biological target: T1, […] pentapeptide of the McpB (Aer2) chemoreceptor (Pseudomonas aeruginosa PAO1)
T1 construct: also called GWEEF; McpB pentapeptide; source: synthetic peptide (Biomedal S.L., Seville, Spain)
Experiment: ITC
Conditions: both partners purified

B1: P. aeruginosa PAO1 CheB2 (PA0173) (enzyme)
chain: MPISVLVVDDSALIRSLLKEIIQADPELRLVGCAPDAFVARDLIKQHAPDVISLDVEMPRMDGLTFLDKLMKARPTPVLMISSLTERGSEATLRALELGAVDFIAKPRLGIAEGMQAYAEEIRAKLKTVARARLRRRAADAPAPPESAAPLLSTEKIIALGASTGGTEALKEVLLGLPAHSPGVVITQHMPPGFTRSFAERLDRLTRLSVSEARDGDRILPGHALVAPGDHHMEVQRSGANYVVRLNRQAQVNGHRPAVDVMFESLARCAGRNLLAGLLTGMGKDGARGLLAIRQAGGYTLAQDEATCVVYGMPREAVELGAAEDVLPLERIAAALLQQAARRGSGNRL
notes: source: E. coli BL21(DE3), purified (HisTrap HP)
- Kd: 93 ± 15 µM
